Several values for one entry are separate records, joined by “and”; a condition that tells them apart may be missing. Equal values may be shown once.

Data on one protein can be found in PMC12036799 (Metabolism: clinical and experimental, 2025).

The data set deals with the molecule itself. As to the kind of experiment: dimer-tetramer equilibrium assay.

B1: recombinant ALDOB WT (aldolase B) (enzyme, UniProt Q91Y97 1-364, looked up)
chain: MAHRFPALTPEQKKELSEIAQRIVANGKGILAADESVGTMGNRLQRIKVENTEENRRQFRELLFSVDNSISQSIGGVILFHETLYQKDSQGNLFRNVLKEKGIVVGIKLDQGGAPLAGTNKETTIQGLDGLSERCAQYKKDGVDFGKWRAVLRIADQCPSSLAIQENANALARYASICQQNGLVPIVEPEVLPDGDHDLEHCQYVSEKVLAAVYKALNDHHVYLEGTLLKPNMVTAGHACTKKYTPEQVAMATVTALHRTVPAAVPGICFLSGGMSEEDATLNLNAINRCPLPRPWKLSFSYGRALQASALAAWGGKAANKKATQEAFMKRAMANCQAAQGQYVHTGSSGAAATQSLFTASYTY
Consider B1, for which the stoichiometry N (in general, the number of molecules, sites or subunits per partner or assembly) was 2 and 4.
